From patent publication EP2594588A1

Target: ADM (agonist of the ADM-Bioassay, human or mouse not told)
Assay: cell-based or functional assay

Maximal inhibition of ADM bioactivity (ADM-Bioassay) (%): 0%
Substance: Non specific mouse IgG (antibody)
